Reference: publication PMC5707514

Biological target: Aβ(M1-42) (UniProt P05067)
Test: fibrils trapped on a 0.2 μm filter, tryptic digest and MALDI-TOF MS; 1:1 mixture of ^15N-Aβ42 and ^14N-Aβ40 monomers, 3 μM total, 5 μM ThT, 37 °C; samples taken at the first and second ThT plateau, fibrils washed with Milli-Q water

Sequence of Aβ(M1-42) (P05067 671-713): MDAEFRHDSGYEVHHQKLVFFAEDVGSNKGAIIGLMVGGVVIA

percent of Aβ40 contained in the fibrils at the first plateau: < 13%
Substance: Aβ(M1-40) (from UniProt P05067 672-711) (peptide)
